Source: PMC6298231

Target: Thrombospondin-1, full-length 185 kDa protein released by endothelial cells (human (endogenous in microvascular endothelial cells)) (UniProt P07996)
Assay: non-reducing SDS-PAGE with immunoblot

## Thrombospondin-1, full-length 185 kDa protein released by endothelial cells (from UniProt P07996 19-1170) (natural protein)
  stoichiometry N: 3
